From patent US20240360228A1 (BIOLEGEND, published 2024)

How the values were obtained:
[1] = molecular target: T1, human chemokine (C-C motif) receptor 8 (CCR8) (human, UniProt P51685 1-355); assay: flow cytometry blocking, human PBMC, CD3+ gate; competitor PE-L263G8
T1 construct: also called hCCR8

[2] = molecular target: T1, human chemokine (C-C motif) receptor 8 …; assay: flow cytometry blocking, human PBMC, CD3+ gate; % cells stained by competitor PE-AB12 after block
Method: (§1) For blocking studies, 100 μL of the cell suspension were incubated with 10 μg purified isotype control, AB1, AB2, AB3, AB4, AB5, AB8, AB9, AB10, AB11, AB12, AB13, AB14, AB15, and Commercial ABI antibodies, or isotype control, as blocking agents.
(§2) After incubation with the blocking agent, the cells were incubated with 0.25 μg of the indicated PE-conjugated antibody plus anti-human CD4 APC or anti-human CD3 for another 15 minutes in the dark and then washed 2 times with Cell Staining Buffer, and acquired in a FACSCanto II flow cytometer (BD Biosciences); the data was analyzed using FCS Express (De Novo Software); MFI correspond to the CCR8+ CD4+ lymphocytes or CCR8+ CD3+ lymphocytes.

[3] = molecular target: T1, human chemokine (C-C motif) receptor 8 …; assay: flow cytometry blocking, human PBMC, CD3+ gate; competitor PE-433H
[4] = molecular target: T1, human chemokine (C-C motif) receptor 8 …; assay: flow cytometry blocking, human PBMC, CD3+ gate; competitor PE-AB13
Method: as §1, §2
(§3) Percentage original MFI was calculated by dividing the MFI of samples blocked with AB1, AB2, AB3, AB4, AB5, AB6, AB7, AB8, AB9, AB10, AB11, AB12, AB13, AB14, AB15, and Commercial ABI antibodies, by the MFI of samples blocked with the corresponding isotype control. This value was subtracted from 100 to get a blocking percentage. The formula is shown below: […]

[5] = molecular target: T1, human chemokine (C-C motif) receptor 8 …; assay: flow cytometry blocking, human PBMC, CD3+ gate; competitor PE-AB12
Method: as §1, §2, §3

[6] = molecular target: T1, human chemokine (C-C motif) receptor 8 …; assay: flow cytometry blocking, human PBMC, CD3+ gate; % cells stained by competitor PE-AB10 after block
Method: as §1, §2

[7] = molecular target: T1, human chemokine (C-C motif) receptor 8 …; assay: flow cytometry blocking, human PBMC, CD3+ gate; competitor PE-AB6
Method: as §1, §2, §3

[8] = molecular target: T1, human chemokine (C-C motif) receptor 8 …; assay: flow cytometry blocking, human PBMC, CD3+ gate; % cells stained by competitor PE-AB7 after block
Method: as §1, §2

[9] = molecular target: T1, human chemokine (C-C motif) receptor 8 …; assay: flow cytometry blocking, human PBMC, CD3+ gate; competitor PE-AB5
Method: as §1, §2, §3

[10] = molecular target: T1, human chemokine (C-C motif) receptor 8 …; assay: flow cytometry blocking, human PBMC, CD3+ gate; % cells stained by competitor PE-AB6 after block
Method: as §1, §2

[11] = molecular target: T1, human chemokine (C-C motif) receptor 8 …; assay: flow cytometry blocking, human PBMC, CD3+ gate; % cells stained by competitor PE-L263G8 after block
Method: as §1, §2

[12] = molecular target: T1, human chemokine (C-C motif) receptor 8 …; assay: flow cytometry blocking, human PBMC, CD3+ gate; % cells stained by competitor PE-AB13 after block
Method: as §1, §2

[13] = molecular target: T1, human chemokine (C-C motif) receptor 8 …; assay: flow cytometry blocking, human PBMC, CD3+ gate; % cells stained by competitor PE-AB11 after block
Method: as §1, §2

[14] = molecular target: T1, human chemokine (C-C motif) receptor 8 …; assay: flow cytometry blocking, human PBMC, CD3+ gate; % cells stained by competitor PE-AB5 after block
Method: as §1, §2

[15] = molecular target: T1, human chemokine (C-C motif) receptor 8 …; assay: flow cytometry blocking, human PBMC, CD3+ gate; competitor PE-AB11
Method: as §1, §2, §3

[16] = molecular target: T1, human chemokine (C-C motif) receptor 8 …; assay: flow cytometry blocking, human PBMC, CD3+ gate; % cells stained by competitor PE-AB14 after block
Method: as §1, §2

[17] = molecular target: T1, human chemokine (C-C motif) receptor 8 …; assay: flow cytometry blocking, human PBMC, CD3+ gate; competitor PE-AB7
Method: as §1, §2, §3

[18] = molecular target: T1, human chemokine (C-C motif) receptor 8 …; assay: flow cytometry blocking, human PBMC, CD3+ gate; % cells stained by competitor PE-433H after block
Method: as §1, §2

[19] = molecular target: T1, human chemokine (C-C motif) receptor 8 …; assay: flow cytometry blocking, human PBMC, CD3+ gate; % cells stained by competitor PE-AB15 after block
Method: as §1, §2

[20] = molecular target: T1, human chemokine (C-C motif) receptor 8 …; assay: flow cytometry blocking, human PBMC, CD3+ gate; % cells stained by competitor PE-AB8 after block
Method: as §1, §2

[21] = molecular target: T1, human chemokine (C-C motif) receptor 8 …; assay: flow cytometry blocking, human PBMC, CD3+ gate; competitor PE-AB15
Method: as §1, §2, §3

[22] = molecular target: T1, human chemokine (C-C motif) receptor 8 …; assay: flow cytometry blocking, human PBMC, CD3+ gate; competitor PE-AB10
Method: as §1, §2, §3

[23] = molecular target: T1, human chemokine (C-C motif) receptor 8 …; assay: flow cytometry blocking, human PBMC, CD3+ gate; competitor PE-AB8
Method: as §1, §2, §3

[24] = molecular target: T1, human chemokine (C-C motif) receptor 8 …; assay: flow cytometry blocking, human PBMC, CD3+ gate; competitor PE-AB14
Method: as §1, §2, §3

T1 sequence (P51685 whole entry): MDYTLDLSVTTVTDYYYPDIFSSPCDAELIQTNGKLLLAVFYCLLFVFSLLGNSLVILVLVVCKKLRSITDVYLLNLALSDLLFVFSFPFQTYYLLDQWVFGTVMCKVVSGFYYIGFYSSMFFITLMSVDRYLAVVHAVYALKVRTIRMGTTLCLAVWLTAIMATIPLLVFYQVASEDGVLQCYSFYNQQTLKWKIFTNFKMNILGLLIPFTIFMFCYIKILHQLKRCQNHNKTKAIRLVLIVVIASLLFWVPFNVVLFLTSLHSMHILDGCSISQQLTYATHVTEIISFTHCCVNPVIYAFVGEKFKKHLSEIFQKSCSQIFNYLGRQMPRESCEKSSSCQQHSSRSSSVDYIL

% Blocking [1] [%] | % Positive cells [2] [%] | % Blocking [3] [%] | % Blocking [4] [%] | % Blocking [5] [%] | % Positive cells [6] [%] | % Blocking [7] [%] | % Positive cells [8] [%] | % Blocking [9] [%] | % Positive cells [10] [%] | % Positive cells [11] [%] | % Positive cells [12] [%] | % Positive cells [13] [%] | % Positive cells [14] [%] | % Blocking [15] [%] | % Positive cells [16] [%] | % Blocking [17] [%] | % Positive cells [18] [%] | % Positive cells [19] [%] | % Positive cells [20] [%] | further results | Binder
90.3 | 0.46 | 19.9 | 88.1 | 93.9 | 0.15 | 6.04 | 4.54 | -5.55 | 7.78 | 0.57 | 0.79 | 0.28 | 8.75 | 96 | 0.27 | 50.1 | 5.66 | 0.29 | 4.35 | % Blocking [21]: 95.6%; % Blocking [22]: 97.5%; % Blocking [23]: 48.6%; % Blocking [24]: 96.2% | anti-CCR8 monoclonal antibody AB10 (antibody, V domains shown, Hybridoma monoclonal; also called antibody 10; clone 10) VH: EVQLVETGGGLVQPKGSLKLSCAVSGFTFKTNAMNWVRQAPGKGLEWVARIRSKSNKYATYYADSVKDRFTISRDDSQSMLYLQMNNLKTEDTAMYYCVRGSEMGYYYAMDYWGQGTSVTVSS VL: DIVMTQAAPSVPVTPGESVSISCRSSKSLLHSNGNTYLYWFLQRPGQSPQLLIYRMSNLASGVPDRFSGSGSGTAFTLRISRVEAEDVGVYYCMQHLEYPFTFGGGTKLEIK
92.7 | 0.17 | 47.2 | 94.1 | 97.7 | 0.21 | 2.9 | 8.87 | -2.41 | 8.04 | 0.43 | 0.39 | 0.09 | 8.49 | 98.7 | 0.12 | 2.53 | 3.73 | 0.16 | 8.8 | % Blocking [21]: 97.6%; % Blocking [22]: 96.5%; % Blocking [23]: -4.02%; % Blocking [24]: 98.3% | anti-CCR8 monoclonal antibody AB11 (antibody, V domains shown, Hybridoma monoclonal; also called antibody 11; clone 11) VH: EVQLVESGGGLVQPKGSLKLSCAASGFAFNTYAMNWVRQAPGKGLEWIARLRSKSNFYATYYADSVKDRFTISRDDSQSMLYLQMNNLKTEDTAVYYCVRGRELGPSYAMDYWGQGTSVTVSS VL: DIVMTQAAPSVPVTPGESVSISCRSSKSLLHSNGNTYLYWFLQRPGQSPQLLIYRMSNLASGVPDRFSGSGSGTAFTLRISRVEAEDVGVYYCMQHLEYPYTFGGGTKLEIK
